# B1: CAMK2A (parent)
# chain: CIQQILEAVLHCHQMGVVHRDLKP
# Variants of: B1
# Test: protein stability index of a GFP-peptide fusion (GPS, HEK-293T) (PSI 1-6); higher = more stable
# Conditions: c terminus: a fixed tail appended
# 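Further: lentivirally expressed fusions sorted by FACS into six bins by GFP to DsRed ratio, PSI derived from sequencing read proportions per bin multiplied by bin number.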
row,Variant,protein stability index
1,CIQQILEAVLHCHQFGVVHRDLKP,1.84
2,CIQQILEAVLHCHQNGVVHRDLKP,1.52
3,CIQQILEAVLHCHQHGVVHRDLKP,2.24
4,CIQQILEAVLHCHQDGVVHRDLKP,1.8
5,CIQQILEAVLHCHQIGVVHRDLKP,2.31
6,CIQQILEAVLHCHQCGVVHRDLKP,2.85
7,CIQQILEAVLHCHQQGVVHRDLKP,1.22
8,CIQQILEAVLHCHQGGVVHRDLKP,2.05
9,CIQQILEAVLHCHQVGVVHRDLKP,2.57
10,CIQQILEAVLHCHQSGVVHRDLKP,2.6
11,CIQQILEAVLHCHQKGVVHRDLKP,2.42
12,CIQQILEAVLHCHQWGVVHRDLKP,3.1
13,CIQQILEAVLHCHQYGVVHRDLKP,2.85
14,CIQQILEAVLHCHQPGVVHRDLKP,1.81
15,CIQQILEAVLHCHQEGVVHRDLKP,2.68
16,CIQQWLEAVLHCHQMGVVHRDLKP,2.01
17,CIQQHLEAVLHCHQMGVVHRDLKP,2.44
18,CIQQNLEAVLHCHQMGVVHRDLKP,1.71
19,CIQQKLEAVLHCHQMGVVHRDLKP,2.16
20,CIQQSLEAVLHCHQMGVVHRDLKP,1.69
21,CIQQQLEAVLHCHQMGVVHRDLKP,1.73
22,CIQQALEAVLHCHQMGVVHRDLKP,4.67
23,CIQQTLEAVLHCHQMGVVHRDLKP,2.89
24,CIQQMLEAVLHCHQMGVVHRDLKP,4.53

row,Variant,protein stability index
1,CIQQPLEAVLHCHQMGVVHRDLKP,1.81
2,CIQQCLEAVLHCHQMGVVHRDLKP,3.12
3,CIQQELEAVLHCHQMGVVHRDLKP,2.3
4,CIQQRLEAVLHCHQMGVVHRDLKP,2.2
5,CIQQFLEAVLHCHQMGVVHRDLKP,2.79
6,CIQQDLEAVLHCHQMGVVHRDLKP,2.65
7,CIQQILEAVMHCHQMGVVHRDLKP,3.74
8,CIQQILEAVRHCHQMGVVHRDLKP,2.37
9,CIQQILEAVGHCHQMGVVHRDLKP,1.67
10,CIQQILEAVAHCHQMGVVHRDLKP,1.35
11,CIQQILEAVFHCHQMGVVHRDLKP,2.72
12,CIQQILEAVNHCHQMGVVHRDLKP,2.05
13,CIQQILEAVQHCHQMGVVHRDLKP,2.19
14,CIQQILEAVKHCHQMGVVHRDLKP,1.9
15,CIQQILEAVWHCHQMGVVHRDLKP,4.24
16,CIQQILEAVPHCHQMGVVHRDLKP,1.66
17,CIQQILEAVSHCHQMGVVHRDLKP,2.21
18,CIQQILEAVDHCHQMGVVHRDLKP,1.95
19,CIQQILEAVTHCHQMGVVHRDLKP,2.11
20,CIQQILEAVEHCHQMGVVHRDLKP,1.53
21,CIQQILEAVHHCHQMGVVHRDLKP,2.19
22,CIQQILEAVVHCHQMGVVHRDLKP,3.33
23,CIQQILEAVLHCHFMGVVHRDLKP,2.94
24,CIQQILEAVLHCHPMGVVHRDLKP,2

row,Variant,protein stability index
1,CIQQILEAVLHCHCMGVVHRDLKP,2.78
2,CIQQILEAVLHCHLMGVVHRDLKP,3.6
3,CIQQILEAVLHCHEMGVVHRDLKP,3.49
4,CIQQILEAVLHCHDMGVVHRDLKP,3.09
5,CIQQILEAVLHCHTMGVVHRDLKP,3.88
6,CIQQILEAVLHCHKMGVVHRDLKP,3.21
7,CIQQILEAVLHCHRMGVVHRDLKP,1.94
8,CIQQILEAVLHCHWMGVVHRDLKP,2.76
9,CIQQILEAVLHCHNMGVVHRDLKP,1.28
10,CIQQILEAVLHCHIMGVVHRDLKP,2.86
11,CIQQILEAVLHCHSMGVVHRDLKP,2.83
12,CIQQILEAVLHCHHMGVVHRDLKP,2.38
13,CIQQILEAVLHCHYMGVVHRDLKP,3.42
14,CIQQILEAVLHCHAMGVVHRDLKP,2.29
15,CIYQILEAVLHCHQMGVVHRDLKP,3.67
16,CIPQILEAVLHCHQMGVVHRDLKP,3.19
17,CIKQILEAVLHCHQMGVVHRDLKP,2.77
18,CIIQILEAVLHCHQMGVVHRDLKP,2.81
19,CIVQILEAVLHCHQMGVVHRDLKP,3.85
20,CITQILEAVLHCHQMGVVHRDLKP,3.42
21,CIQQISEAVLHCHQMGVVHRDLKP,1.71
22,CIQQIDEAVLHCHQMGVVHRDLKP,2.93
23,CIQQIQEAVLHCHQMGVVHRDLKP,2.09
24,CIQQITEAVLHCHQMGVVHRDLKP,1.69

row,Variant,protein stability index
1,CIQQIHEAVLHCHQMGVVHRDLKP,1.77
2,CIQQIYEAVLHCHQMGVVHRDLKP,2.13
3,CIQQICEAVLHCHQMGVVHRDLKP,1.84
4,CIQQIVEAVLHCHQMGVVHRDLKP,2.88
5,CIQQIEEAVLHCHQMGVVHRDLKP,2.44
6,CIQQIAEAVLHCHQMGVVHRDLKP,1.4
7,CIQQIREAVLHCHQMGVVHRDLKP,1.97
8,CIQQIPEAVLHCHQMGVVHRDLKP,1.83
9,CIQQIFEAVLHCHQMGVVHRDLKP,1.07
10,CIQQINEAVLHCHQMGVVHRDLKP,1.98
11,CIQQIWEAVLHCHQMGVVHRDLKP,1.87
12,CIQQIGEAVLHCHQMGVVHRDLKP,2.14
13,CIQQIIEAVLHCHQMGVVHRDLKP,2.64
14,CIQQIMEAVLHCHQMGVVHRDLKP,2.75
15,CIQQIKEAVLHCHQMGVVHRDLKP,2.4
16,CIQQILRAVLHCHQMGVVHRDLKP,2.81
17,CIQQILQAVLHCHQMGVVHRDLKP,2.55
18,CIQQILSAVLHCHQMGVVHRDLKP,2.57
19,CIQQILKAVLHCHQMGVVHRDLKP,2.25
20,CIQQILCAVLHCHQMGVVHRDLKP,3.72
21,CIQQILMAVLHCHQMGVVHRDLKP,4.26
22,CIQQILIAVLHCHQMGVVHRDLKP,2.74
23,CIQQILDAVLHCHQMGVVHRDLKP,3.99
24,CIQQILYAVLHCHQMGVVHRDLKP,4.43

row,Variant,protein stability index
1,CIQQILAAVLHCHQMGVVHRDLKP,2.02
2,CIQQILWAVLHCHQMGVVHRDLKP,2.78
3,CIQQILTAVLHCHQMGVVHRDLKP,1.99
4,CIQQILVAVLHCHQMGVVHRDLKP,1.8
5,CIQQILFAVLHCHQMGVVHRDLKP,2.42
6,CIQQILGAVLHCHQMGVVHRDLKP,4.42
7,CIQQILEAVLHEHQMGVVHRDLKP,2.58
8,CIQQILEAVLHYHQMGVVHRDLKP,3.8
9,CIQQILEAVLHGHQMGVVHRDLKP,1.18
10,CIQQILEAVLHDHQMGVVHRDLKP,1.54
11,CIQQILEAVLHMHQMGVVHRDLKP,2.79
12,CIQQILEAVLHNHQMGVVHRDLKP,3.26
13,CIQQILEAVLHKHQMGVVHRDLKP,1.82
14,CIQQILEAVLHRHQMGVVHRDLKP,4.86
15,CIQQILEAVLHTHQMGVVHRDLKP,2.74
16,CIQQILEAVLHVHQMGVVHRDLKP,2.82
17,CIQQILEAVLHPHQMGVVHRDLKP,1.53
18,CIQQILEAVLHWHQMGVVHRDLKP,2.65
19,CIQQILEAVLHHHQMGVVHRDLKP,2.98
20,CIQQILEAVLHAHQMGVVHRDLKP,2.34
21,CIQQILEAVLHLHQMGVVHRDLKP,3.33
22,CIQQILEAVLHIHQMGVVHRDLKP,2.66
23,CIQQILEAVLHCHQMCVVHRDLKP,2.97
24,CIQQILEALLHCHQMGVVHRDLKP,3.23

row,Variant,protein stability index
1,CIQQILEAQLHCHQMGVVHRDLKP,1.96
2,CIQQILEAELHCHQMGVVHRDLKP,1.87
3,CIQQILEAWLHCHQMGVVHRDLKP,2.45
4,CIQQILEANLHCHQMGVVHRDLKP,1.96
5,CIQQILEAHLHCHQMGVVHRDLKP,2.35
6,CIQQILEATLHCHQMGVVHRDLKP,2.86
7,CIQQILEAPLHCHQMGVVHRDLKP,1.26
8,CIQQILEACLHCHQMGVVHRDLKP,2.82
9,CIQQILEAILHCHQMGVVHRDLKP,2.04
10,CIQQILEAYLHCHQMGVVHRDLKP,3.08
11,CIQQILEADLHCHQMGVVHRDLKP,1.83
12,CIQQILEARLHCHQMGVVHRDLKP,2.01
13,CIQQILEAKLHCHQMGVVHRDLKP,1.72
14,CIQQILEAGLHCHQMGVVHRDLKP,2
15,CIQQILEAALHCHQMGVVHRDLKP,1.86
16,CIQQILEAMLHCHQMGVVHRDLKP,2.92
17,CIQQILEAVLHCQQMGVVHRDLKP,1.22
18,CIQQILEAVLHCEQMGVVHRDLKP,2.49
19,CIQQILEAVLHCNQMGVVHRDLKP,2.28
20,CIQQILEAVLHCMQMGVVHRDLKP,2.07
21,CIQQILEAVLHCDQMGVVHRDLKP,2.57
22,CIQQILEAVLHCYQMGVVHRDLKP,3.92
23,CIQQILEAVLHCIQMGVVHRDLKP,2.85
24,CIQQILEAVLHCRQMGVVHRDLKP,1.55

row,Variant,protein stability index
1,CIQQILEAVLHCCQMGVVHRDLKP,2.35
2,CIQQILEAVLHCFQMGVVHRDLKP,1.28
3,CIQQILEAVLHCKQMGVVHRDLKP,1.73
4,CIQQILEAVLHCWQMGVVHRDLKP,1.27
5,CIQQILEAVLHCGQMGVVHRDLKP,3.66
6,CIQQILEQVLHCHQMGVVHRDLKP,2.42
7,CIQQILECVLHCHQMGVVHRDLKP,2.57
8,CIQQILEGVLHCHQMGVVHRDLKP,3.6
9,CIQQILEWVLHCHQMGVVHRDLKP,4.4
10,CIQQILETVLHCHQMGVVHRDLKP,3.67
11,CIQQILEVVLHCHQMGVVHRDLKP,2.26
12,CIQQILEYVLHCHQMGVVHRDLKP,2.54
13,CIQQILEMVLHCHQMGVVHRDLKP,3.63
14,CIQQILEDVLHCHQMGVVHRDLKP,2.04
15,CIQQILEPVLHCHQMGVVHRDLKP,2.9
16,CIQQILERVLHCHQMGVVHRDLKP,1.5
17,CIQQILEHVLHCHQMGVVHRDLKP,2.39
18,CIQQILEKVLHCHQMGVVHRDLKP,2.86
19,CIQQILEFVLHCHQMGVVHRDLKP,3.18
20,CIQTILEAVLHCHQMGVVHRDLKP,2.74
21,CIQAILEAVLHCHQMGVVHRDLKP,1.96
22,CIQRILEAVLHCHQMGVVHRDLKP,2.94
23,CIQDILEAVLHCHQMGVVHRDLKP,2.04
24,CIQKILEAVLHCHQMGVVHRDLKP,1.93

row,Variant,protein stability index
1,CIQPILEAVLHCHQMGVVHRDLKP,1.69
2,CIQMILEAVLHCHQMGVVHRDLKP,1.92
3,CIQNILEAVLHCHQMGVVHRDLKP,2.68
4,CIQLILEAVLHCHQMGVVHRDLKP,2.55
5,CIQGILEAVLHCHQMGVVHRDLKP,5.02
6,CIQYILEAVLHCHQMGVVHRDLKP,2.07
7,CIQHILEAVLHCHQMGVVHRDLKP,2.13
8,CIQQILEAVLVCHQMGVVHRDLKP,1.53
9,CIQQILEAVLSCHQMGVVHRDLKP,2.86
10,CIQQILEAVLKCHQMGVVHRDLKP,1.72
11,CIQQILEAVLPCHQMGVVHRDLKP,1.69
12,CIQQILEAVLMCHQMGVVHRDLKP,4.07
13,CIQQILEAVLCCHQMGVVHRDLKP,2.39
14,CIQQILEAVLECHQMGVVHRDLKP,2.91
15,CIQQILEAVLICHQMGVVHRDLKP,3.32
16,CIQQILEAVLTCHQMGVVHRDLKP,2.39
17,CIQQILEAVLNCHQMGVVHRDLKP,2.4
18,CIQQILEAVLDCHQMGVVHRDLKP,3.55
19,CIQQILEAVLFCHQMGVVHRDLKP,3.5
20,CIQQILEAVLQCHQMGVVHRDLKP,1.9
